# Key:
# Conditions in all cases: both partners purified
# [1] = target: T1, Recombinant purified human PD-1 protein, residues Leu25-Thr168, with a C-terminal 6-His tag (Homo sapiens, UniProt Q15116); assay: SPR; Biacore 8K, CMD-200M chip (3D-hydrogel); mAb captured on amine-coupled goat anti-human IgG Fc, PD-1-His monomer as analyte (100 nM top, 3-fold dilutions), 1200 s dissociation; 25 C, HBS-EP+ pH 7.4; 1:1 Langmuir fit, apparent constants
# T1 construct: programmed cell death protein 1 (PD-1), human, residues Leu25-Thr168; also called programmed cell death protein 1; PD-1-His monomer; source: bought: R&D Systems (catalog# 8986-PD, lot# DDJM0417041)
# [2] = target: T1, Recombinant purified human PD-1 …; assay: SPR; Biacore 8K, CMD-P chip (flat); mAb captured on amine-coupled goat anti-human IgG Fc, PD-1-His monomer as analyte (100 nM top, 3-fold dilutions), 1200 s dissociation; 25 C, HBS-EP+ pH 7.4; 1:1 Langmuir fit, apparent constants
# [3] = target: T1, Recombinant purified human PD-1 …; assay: SPR; Biacore 8K, C1 chip (flat); mAb captured on amine-coupled goat anti-human IgG Fc, PD-1-His monomer as analyte (100 nM top, 3-fold dilutions), 1200 s dissociation; 25 C, HBS-EP+ pH 7.4; 1:1 Langmuir fit, apparent constants; 8 mAbs measured in two independent experiments
# [4] = target: T1, Recombinant purified human PD-1 …; assay: SPR; Biacore 8K, CM5 chip (3D-hydrogel); mAb captured on amine-coupled goat anti-human IgG Fc, PD-1-His monomer as analyte (100 nM top, 3-fold dilutions), 1200 s dissociation; 25 C, HBS-EP+ pH 7.4; 1:1 Langmuir fit, apparent constants
# [5] = target: T2, Recombinant purified human PD-1 protein, residues Leu25-Thr168, with a C-terminal 6-His tag (human, UniProt Q15116); assay: SPR; Biacore 8K, flat chips (average of C1 and CMD-P); mAbs captured on goat anti-human IgG Fc; PD-1 His-tagged monomer analyte 0.4-100 nM; 25 C; HBS-EP+ pH 7.4; 1:1 Langmuir fit with mass transport; apparent
# T2 construct: programmed cell death protein 1 (PD-1), human, residues Leu25-Thr168; monomer; the results call it wild-type or full length PD-1 against the P35-Q167 fragment; also called PD-1-His; PD-1 His-tagged monomer; source: bought: R&D Systems; not shown: His6, C-terminal, kept
# [6] = target: T2, Recombinant purified human PD-1 …; assay: SPR; Carterra LSA, CMD-P (flat) chip; mAbs captured on goat anti-human IgG Fc in a 384-spot array; PD-1-His analyte 0.5-1000 nM, 5 min association, 20 min dissociation; HBS-ET + 0.5 mg/ml BSA; 1:1 Langmuir fit; mean of spots; apparent
# [7] = target: T2, Recombinant purified human PD-1 …; assay: SPR; Biacore 8K, 3D-hydrogel chips (average of CM5 and CMD-200M); mAbs captured on goat anti-human IgG Fc; PD-1 His-tagged monomer analyte 0.4-100 nM; 25 C; HBS-EP+ pH 7.4; 1:1 Langmuir fit with mass transport; apparent
# [8] = target: T3, biotinylated His-tagged PD-1 (Homo sapiens, UniProt Q15116, biotin); assay: MSD solution equilibrium titration; 100 pM biotinylated His-tagged PD-1 titrated with mAb (top 100, 50 or 10 nM binding sites), 18 h at room temperature; free antigen captured on mAb-coated MSD plates; relative KD
# T3 construct: PD-1, His-tagged, biotinylated, used in the MSD experiments; probably the R&D Systems Leu25-Thr168 protein after biotinylation
# [9] = target: T1, Recombinant purified human PD-1 …; assay: SPR; Biacore 8K, C1 chip (flat); mAb captured on amine-coupled goat anti-human IgG Fc, PD-1-His monomer as analyte (100 nM top, 3-fold dilutions), 1200 s dissociation; 25 C, HBS-EP+ pH 7.4; 1:1 Langmuir fit, apparent constants; 8 mAbs measured in two independent experiments; remark: listed apart in the source
# T1 sequence (Q15116 25-168): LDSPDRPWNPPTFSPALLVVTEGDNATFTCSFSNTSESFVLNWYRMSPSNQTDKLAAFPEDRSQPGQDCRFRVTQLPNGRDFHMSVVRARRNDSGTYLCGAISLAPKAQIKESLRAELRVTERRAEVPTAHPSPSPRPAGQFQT
# T2 sequence (Q15116 25-168): as above
# T3 sequence (Q15116 whole entry, looked up, tested part not stated): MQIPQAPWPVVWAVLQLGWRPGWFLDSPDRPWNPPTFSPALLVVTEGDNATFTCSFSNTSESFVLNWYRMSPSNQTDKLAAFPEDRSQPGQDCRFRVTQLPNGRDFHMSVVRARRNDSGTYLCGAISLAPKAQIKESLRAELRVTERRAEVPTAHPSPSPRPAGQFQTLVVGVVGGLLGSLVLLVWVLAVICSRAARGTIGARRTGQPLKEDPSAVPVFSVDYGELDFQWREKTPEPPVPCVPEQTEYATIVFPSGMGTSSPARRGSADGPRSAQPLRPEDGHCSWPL
Binder,Kd [1],koff [1],kon [1],Kd [2],koff [2],kon [2],Kd [3],koff [3],kon [3],Kd [4],koff [4],kon [4],Kd [5],Kd [6],koff [6],kon [6],Kd [7],Kd [8],other results
"mAb16 (antibody, V domains shown, IgG4; also called analog of dostarlimab; dostar; source: HEK293 suspension cells, cotransfected, purified (Protein A)) VH: EVQLLESGGGLVQPGGSLRLSCAASGFTFSSYDMSWVRQAPGKGLEWVSTISGGGSYTYYQDSVKGRFTISRDNSKNTLYLQMNSLRAEDTAVYYCASPYYAMDYWGQGTTVTVSS VL: DIQLTQSPSFLSAYVGDRVTITCKASQDVGTAVAWYQQKPGKAPKLLIYWASTLHTGVPSRFSGSGSGTEFTLTISSLQPEDFATYYCQHYSSYPWTFGQGTKLEIK",1630 pM,0.000287 s⁻¹,176000 M⁻¹ s⁻¹,965 pM,0.000269 s⁻¹,279000 M⁻¹ s⁻¹,784 pM,0.000297 s⁻¹,379000 M⁻¹ s⁻¹,1770 pM,0.000262 s⁻¹,148000 M⁻¹ s⁻¹,,,,,,,
"mAb04 (analog of retifanlimab) (antibody, V domains shown, VH; IgG4 heavy-chain constant region with stabilizing 226CPPC hinge; VL; IgG4 analog; source: HEK293 suspension cells, cotransfected, purified (Protein A)) VH: QVQLVQSGAEVKKPGASVKVSCKASGYSFTSYWMNWVRQAPGQGLEWIGVIHPSDSETWLDQKFKDRVTITVDKSTSTAYMELSSLRSEDTAVYYCAREHYGTSPFAYWGQGTLVTVSS VL: EIVLTQSPATLSLSPGERATLSCRASESVDNYGMSFMNWFQQKPGQPPKLLIHAASNQGSGVPSRFSGSGSGTDFTLTISSLEPEDFAVYFCQQSKEVPYTFGGGTKVEIK",,,,,,,,,,,,,350 pM,700 pM,0.00039 s⁻¹,580000 M⁻¹ s⁻¹,650 pM,56 pM,
"mAb04 (antibody, V domains shown, IgG4; also called analog of retifanlimab; retifan; source: HEK293 suspension cells, cotransfected, purified (Protein A)) VH: QVQLVQSGAEVKKPGASVKVSCKASGYSFTSYWMNWVRQAPGQGLEWIGVIHPSDSETWLDQKFKDRVTITVDKSTSTAYMELSSLRSEDTAVYYCAREHYGTSPFAYWGQGTLVTVSS VL: EIVLTQSPATLSLSPGERATLSCRASESVDNYGMSFMNWFQQKPGQPPKLLIHAASNQGSGVPSRFSGSGSGTDFTLTISSLEPEDFAVYFCQQSKEVPYTFGGGTKVEIK",582 pM,0.000253 s⁻¹,435000 M⁻¹ s⁻¹,387 pM,0.000235 s⁻¹,608000 M⁻¹ s⁻¹,307 pM,0.000269 s⁻¹,877000 M⁻¹ s⁻¹,717 pM,0.000235 s⁻¹,328000 M⁻¹ s⁻¹,,,,,,,Kd [9]: 297 pM; koff [9]: 0.000277 s⁻¹; kon [9]: 933000 M⁻¹ s⁻¹
"mAb03 (antibody, V domains shown, IgG4; also called analog of tislelizumab; tisle; source: HEK293 suspension cells, cotransfected, purified (Protein A)) VH: QVQLQESGPGLVKPSETLSLTCTVSGFSLTSYGVHWIRQPPGKGLEWIGVIYADGSTNYNPSLKSRVTISKDTSKNQVSLKLSSVTAADTAVYYCARAYGNYWYIDVWGQGTTVTVSS VL: DIVMTQSPDSLAVSLGERATINCKSSESVSNDVAWYQQKPGQPPKLLINYAFHRFTGVPDRFSGSGYGTDFTLTISSLQAEDVAVYYCHQAYSSPYTFGQGTKLEIK",240 pM,6.16e-05 s⁻¹,257000 M⁻¹ s⁻¹,134 pM,5.77e-05 s⁻¹,432000 M⁻¹ s⁻¹,119 pM,7.54e-05 s⁻¹,636000 M⁻¹ s⁻¹,277 pM,6.03e-05 s⁻¹,218000 M⁻¹ s⁻¹,,,,,,,Kd [9]: 128 pM; koff [9]: 8.72e-05 s⁻¹; kon [9]: 682000 M⁻¹ s⁻¹
"mAb17 (analog of camrelizumab) (antibody, V domains shown, VH; IgG4 heavy-chain constant region with stabilizing 226CPPC hinge; VL; IgG4 analog; source: HEK293 suspension cells, cotransfected, purified (Protein A)) VH: EVQLVESGGGLVQPGGSLRLSCAASGFTFSSYMMSWVRQAPGKGLEWVATISGGGANTYYPDSVKGRFTISRDNAKNSLYLQMNSLRAEDTAVYYCARQLYYFDYWGQGTTVTVSS VL: DIQMTQSPSSLSASVGDRVTITCLASQTIGTWLTWYQQKPGKAPKLLIYTATSLADGVPSRFSGSGSGTDFTLTISSLQPEDFATYYCQQVYSIPWTFGGGTKVEIK",,,,,,,,,,,,,2400 pM,4000 pM,0.00073 s⁻¹,180000 M⁻¹ s⁻¹,4500 pM,470 pM,
"mAb17 (antibody, V domains shown, IgG4; also called analog of camrelizumab; camre; source: HEK293 suspension cells, cotransfected, purified (Protein A)) VH: EVQLVESGGGLVQPGGSLRLSCAASGFTFSSYMMSWVRQAPGKGLEWVATISGGGANTYYPDSVKGRFTISRDNAKNSLYLQMNSLRAEDTAVYYCARQLYYFDYWGQGTTVTVSS VL: DIQMTQSPSSLSASVGDRVTITCLASQTIGTWLTWYQQKPGKAPKLLIYTATSLADGVPSRFSGSGSGTDFTLTISSLQPEDFATYYCQQVYSIPWTFGGGTKVEIK",4090 pM,0.000503 s⁻¹,123000 M⁻¹ s⁻¹,2580 pM,0.000497 s⁻¹,192000 M⁻¹ s⁻¹,2150 pM,0.000526 s⁻¹,245000 M⁻¹ s⁻¹,4990 pM,0.000456 s⁻¹,91400 M⁻¹ s⁻¹,,,,,,,

# Second part, led by results:
Kd [1],koff [1],kon [1],Kd [2],koff [2],kon [2],Kd [3],koff [3],kon [3],Kd [4],koff [4],kon [4],Kd [5],Kd [6],koff [6],kon [6],Kd [7],Kd [8],Binder,other results
2010 pM,0.000212 s⁻¹,105000 M⁻¹ s⁻¹,897 pM,0.000164 s⁻¹,183000 M⁻¹ s⁻¹,752 pM,0.000188 s⁻¹,250000 M⁻¹ s⁻¹,1750 pM,0.000157 s⁻¹,90100 M⁻¹ s⁻¹,,,,,,,"mAb23 (antibody, V domains shown, IgG4; also called analog of cemiplimab; cemip; source: HEK293 suspension cells, cotransfected, purified (Protein A)) VH: EVQLLESGGVLVQPGGSLRLSCAASGFTFSNFGMTWVRQAPGKGLEWVSGISGGGRDTYFADSVKGRFTISRDNSKNTLYLQMNSLKGEDTAVYYCVKWGNIYFDYWGQGTLVTVSS VL: DIQMTQSPSSLSASVGDSITITCRASLSINTFLNWYQQKPGKAPNLLIYAASSLHGGVPSRFSGSGSGTDFTLTIRTLQPEDFATYYCQQSSNTPFTFGPGTVVDFR",
,,,,,,,,,,,,< 120 pM,< 130 pM,< 4.3e-05 s⁻¹,330000 M⁻¹ s⁻¹,< 210 pM,28 pM,"mAb21 (analog of sintilimab) (antibody, V domains shown, VH; IgG4 heavy-chain constant region with stabilizing 226CPPC hinge; VL; IgG4 analog; source: HEK293 suspension cells, cotransfected, purified (Protein A)) VH: QVQLVQSGAEVKKPGSSVKVSCKASGGTFSSYAISWVRQAPGQGLEWMGLIIPMFDTAGYAQKFQGRVAITVDESTSTAYMELSSLRSEDTAVYYCARAEHSSTGTFDYWGQGTLVTVSS VL: DIQMTQSPSSVSASVGDRVTITCRASQGISSWLAWYQQKPGKAPKLLISAASSLQSGVPSRFSGSGSGTDFTLTISSLQPEDFATYYCQQANHLPFTFGGGTKVEIK",
,,,,,,,,,,,,< 130 pM,< 170 pM,< 4.3e-05 s⁻¹,250000 M⁻¹ s⁻¹,< 300 pM,20 pM,"mAb19 (analog of sasanlimab) (antibody, V domains shown, VH; IgG4 heavy-chain constant region with stabilizing 226CPPC hinge; VL; IgG4 analog; source: HEK293 suspension cells, cotransfected, purified (Protein A)) VH: QVQLVQSGAEVKKPGASVKVSCKASGYTFTSYWINWVRQAPGQGLEWMGNIYPGSSLTNYNEKFKNRVTMTRDTSTSTVYMELSSLRSEDTAVYYCARLSTGTFAYWGQGTLVTVSS VL: DIVMTQSPDSLAVSLGERATINCKSSQSLWDSGNQKNFLTWYQQKPGQPPKLLIYWTSYRESGVPDRFSGSGSGTDFTLTISSLQAEDVAVYYCQNDYFYPHTFGGGTKVEIK",

# — article PMC7058304 (PLoS ONE, 2020)
